Reference: IntAct's records for PubMed 9430655

B1: Merlin (Homo sapiens), P35240-1 (parent)
chain: MAGAIASRMSFSSLKRKQPKTFTVRIVTMDAEMEFNCEMKWKGKDLFDLVCRTLGLRETWFFGLQYTIKDTVAWLKMDKKVLDHDVSKEEPVTFHFLAKFYPENAEEELVQEITQHLFFLQVKKQILDEKIYCPPEASVLLASYAVQAKYGDYDPSVHKRGFLAQEELLPKRVINLYQMTPEMWEERITAWYAEHRGRARDEAEMEYLKIAQDLEMYGVNYFAIRNKKGTELLLGVDALGLHIYDPENRLTPKISFPWNEIRNISYSDKEFTIKPLDKKIDVFKFNSSKLRVNKLILQLCIGNHDLFMRRRKADSLEVQQMKAQAREEKARKQMERQRLAREKQMREEAERTRDELERRLLQMKEEATMANEALMRSEETADLLAEKAQITEEEAKLLAQKAAEAEQEMQRIKATAIRTEEEKRLMEQKVLEAEVLALKMAEESERRAKEADQLKQDLQEAREAERRAKQKLLEIATKPTYPPMNPIPAPLPPDIPSFNLIGDSLSFDFKDTDMKRLSMEIEKEKVEYMEKSKHLQEQLNELKTEIEALKLKERETALDILHNENSDRGGSSKHNTIKKLTLQSAKSRVAFFEEL
partner: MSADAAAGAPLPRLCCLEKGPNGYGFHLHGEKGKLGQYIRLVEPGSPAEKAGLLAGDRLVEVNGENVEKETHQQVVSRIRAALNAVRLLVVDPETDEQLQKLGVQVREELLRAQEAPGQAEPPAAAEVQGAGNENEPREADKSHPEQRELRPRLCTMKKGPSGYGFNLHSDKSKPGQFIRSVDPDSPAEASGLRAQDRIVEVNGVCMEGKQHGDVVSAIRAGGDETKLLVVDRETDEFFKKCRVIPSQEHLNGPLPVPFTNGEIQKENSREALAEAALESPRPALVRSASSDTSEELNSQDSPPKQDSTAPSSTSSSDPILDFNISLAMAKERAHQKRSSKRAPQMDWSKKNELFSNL

Variants of: B1
Settings: with nhrf1_human NHERF1, O14745

Variant | effect of a mutation on the interaction
N220Y | decreasing interaction
